US20110044985A1 (RINAT NEUROSCIENCE, published 2011)
No end group written: not given here.

Assays:
[1] = molecular target: T1, 28 KGAIIGLMVGGVVIAG (also: biotinylated (position not given here)); assay: ELISA, biotinylated peptide on streptavidin-coated plate, goat anti-human kappa HRP
T1 construct: It differs from m21 (Aβ peptide 28-42, not biotinylated, no added glycine); also called Biotinylated Aβ peptide with amino acids 28-42 and a glycine at the C-terminus; 28-42 15-mer
T1 peptide: KGAIIGLMVGGVVIAG
Experimental: (§1) Various Aβ peptides (assigned SEQ ID NO:18-26, 31, and 27-29 from top to bottom sequences) were immobilized on ELISA plates. Antibodies were incubated for 1 hour with various immobilized peptides. Antibody 6G bound to immobilized Aβ peptides were measured using goat anti-human kappa HRP conjugated secondary antibody. […] “NB” refers to no binding detected.
(§2) ELISA was used for measuring binding of antibody 6G and variants to biotinylated Aβ peptides. NUNC maxisorp plates were coated with 6 ug/ml of streptavidin (Pierce, 21122) in PBS pH 7.4 for more than 1 h at 4° C. Plates were blocked with 1% BSA in PBS buffer pH 7.4. After washing, biotinylated Aβ peptides in PBS pH 7.4 were incubated 1 hour at room temperature. Primary antibody (from cell supernatants, serum containing anti-Aβ antibody, or purified full antibody or Fabs at desired dilution) was incubated with the immobilized Aβ peptides for 1 h at room temperature. After washing, plates were incubated with secondary antibody, a HRP conjugated goat anti-human kappa chain antibody (MP Biomedicals, 55233) at 1:5000 dilution. After washing, bound secondary antibody was measured by adding TMB substrate (KPL, 50-76-02, 50-65-02). HRP reaction was stopped by adding 1M phosphoric acid and absorbance at 450 nm was measured.

[2] = molecular target: T2, Biotinylated Aβ peptide with amino acids 19-33 and a glycine at the C-terminus (also: biotinylated (position not given here)); assay: as above
T2 peptide: FFAEDVGSNKGAIIGG
Experimental: as §1, §2

[3] = molecular target: T3, Biotinylated Aβ peptide with amino acids 26-40 and a glycine at the C-terminus (also: biotinylated (position not given here)); assay: as above
T3 peptide: SNKGAIIGLMVGGVVG
Experimental: as §1, §2

[4] = molecular target: T4, Biotinylated Aβ peptide with amino acids 27-41 and a glycine at the C-terminus (also: biotinylated (position not given here)); assay: as above
T4 peptide: NKGAIIGLMVGGVVIG
Experimental: as §1, §2

[5] = molecular target: T5, Biotinylated Aβ peptide with amino acids 24-33 and a glycine at the C-terminus (also: biotinylated (position not given here)); assay: as above
T5 peptide: VGSNKGAIIGG
Experimental: as §1, §2

[6] = molecular target: T6, Biotinylated Aβ peptide with amino acids 26-35 and a glycine at the C-terminus (also: biotinylated (position not given here)); assay: as above
T6 peptide: SNKGAIIGLMG
Experimental: as §1, §2

[7] = molecular target: T7, Aβ1-40; assay: ELISA, nonbiotinylated peptide on plate
T7 construct: also called 1-40 (WT); Aβ peptide 1-40
T7 sequence (peptide, as listed by the source): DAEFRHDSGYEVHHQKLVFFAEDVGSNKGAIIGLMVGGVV
Experimental: (§3) ELISA was used for measuring binding of antibody 6G and variants to nonbiotinylated Aβ peptides. NUNC maxisorp plates were coated with 2.5 ug/ml of Aβ peptides in PBS pH 7.4 for more than 1 hour at 4° C. Plates were blocked with 1% BSA in PBS buffer pH 7.4. Primary antibody (from cell supernatants, serum containing anti-Aβ antibody, or purified full antibody or Fabs at desired dilution) was incubated with the immobilized Aβ peptides for 1 h at room temperature. After washing, the plates were incubated with secondary antibody, a HRP conjugated goat anti-human kappa chain antibody (MP Biomedicals, 55233) at 1:5000 dilution. After washing, bound secondary antibody was measured by adding TMB substrate (KPL, 50-76-02, 50-65-02). The HRP reaction was stopped by adding 1M phosphoric acid and absorbance at 450 nm was measured.
(§4) All amino acid substitutions of the variants shown in Table 3 are described relative to the sequence of 6G. Binding was determined by ELISA described above with nonbiotinylated Aβ₁₋₄₀ or Aβ₁₋₄₂ immobilized on the surface of an ELISA plate.

[8] = molecular target: T8, Aβ1-42; assay: ELISA, nonbiotinylated peptide on plate
T8 construct: also called 1-42 (WT); Aβ peptide 1-42
T8 sequence (peptide, as listed by the source): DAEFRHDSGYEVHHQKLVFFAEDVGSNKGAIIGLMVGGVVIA
Experimental: as §3, §4

B1: antibody 6G (antibody, V domains shown)
VH: QVQLVQSGAEVKKPGASVKVSCKASGYTFTTYAIHWVRQAPGQGLEWMGFTSPYSGVSNYNQKFKGRVTMTRDTSTSTVYMELSSLRSEDTAVYYCARFDNYDRGYVRDYWGQGTLVTVSS
VL: DIVMTQSPDSLAVSLGERATINCRASESVDNDRISFLNWYQQKPGQPPKLLIYAATKQGTGVPDRFSGSGSGTDFTLTISSLQAEDVAVYYCQQSKEFPWSFGGGTKVEIKR
notes: Full antibody; human IgG2a constant region with A330P331 to S330S331, human kappa; also called 6G monoclonal antibody; 6G full antibody
- binding result [1]: no binding (tested: 10 ug/ml)
- binding result [2]: no binding (tested: 10 ug/ml)
- binding result [3]: no binding (tested: 10 ug/ml)
- binding result [4]: no binding (tested: 10 ug/ml)
- binding result [5]: no binding (tested: 10 ug/ml)
- binding result [6]: no binding (tested: 10 ug/ml)

B2: 6G heavy chain mutant variant 8H (N101H) (antibody, V domains shown)
VH: QVQLVQSGAEVKKPGASVKVSCKASGYTFTTYAIHWVRQAPGQGLEWMGFTSPYSGVSNYNQKFKGRVTMTRDTSTSTVYMELSSLRSEDTAVYYCARFDHYDRGYVRDYWGQGTLVTVS
VL: DIVMTQSPDSLAVSLGERATINCRASESVDNDRISFLNWYQQKPGQPPKLLIYAATKQGTGVPDRFSGSGSGTDFTLTISSLQAEDVAVYYCQQSKEFPWSFGGGTKVEIKR
- A450 ELISA [7]: 0.21 A450

B3: 6G light chain mutant variant 7F (Q94K) (antibody, V domains shown)
VH: QVQLVQSGAEVKKPGASVKVSCKASGYTFTTYAIHWVRQAPGQGLEWMGFTSPYSGVSNYNQKFKGRVTMTRDTSTSTVYMELSSLRSEDTAVYYCARFDNYDRGYVRDYWGQGTLVTVS
VL: DIVMTQSPDSLAVSLGERATINCRASESVDNDRISFLNWYQQKPGQPPKLLIYAATKQGTGVPDRFSGSGSGTDFTLTISSLQAEDVAVYYCQKSKEFPWSFGGGTKVEIKR
- A450 ELISA [8]: 0.19 A450

B4: 6G light chain mutant variant 7E (Q94R) (antibody, V domains shown)
VH: QVQLVQSGAEVKKPGASVKVSCKASGYTFTTYAIHWVRQAPGQGLEWMGFTSPYSGVSNYNQKFKGRVTMTRDTSTSTVYMELSSLRSEDTAVYYCARFDNYDRGYVRDYWGQGTLVTVS
VL: DIVMTQSPDSLAVSLGERATINCRASESVDNDRISFLNWYQQKPGQPPKLLIYAATKQGTGVPDRFSGSGSGTDFTLTISSLQAEDVAVYYCQRSKEFPWSFGGGTKVEIKR
- A450 ELISA [8]: 0.18 A450

B5: 6G light chain mutant variant 10E (S95L) (antibody, V domains shown)
VH: QVQLVQSGAEVKKPGASVKVSCKASGYTFTTYAIHWVRQAPGQGLEWMGFTSPYSGVSNYNQKFKGRVTMTRDTSTSTVYMELSSLRSEDTAVYYCARFDNYDRGYVRDYWGQGTLVTVS
VL: DIVMTQSPDSLAVSLGERATINCRASESVDNDRISFLNWYQQKPGQPPKLLIYAATKQGTGVPDRFSGSGSGTDFTLTISSLQAEDVAVYYCQQLKEFPWSFGGGTKVEIKR
- A450 ELISA [8]: 0.12 A450

B6: 6G heavy chain mutant variant 7D (N101C) (antibody, V domains shown)
VH: QVQLVQSGAEVKKPGASVKVSCKASGYTFTTYAIHWVRQAPGQGLEWMGFTSPYSGVSNYNQKFKGRVTMTRDTSTSTVYMELSSLRSEDTAVYYCARFDCYDRGYVRDYWGQGTLVTVS
VL: DIVMTQSPDSLAVSLGERATINCRASESVDNDRISFLNWYQQKPGQPPKLLIYAATKQGTGVPDRFSGSGSGTDFTLTISSLQAEDVAVYYCQQSKEFPWSFGGGTKVEIKR
- A450 ELISA [8]: 0.31 A450

B7: 6G light chain mutant variant 6E (E97P) (antibody, V domains shown)
VH: QVQLVQSGAEVKKPGASVKVSCKASGYTFTTYAIHWVRQAPGQGLEWMGFTSPYSGVSNYNQKFKGRVTMTRDTSTSTVYMELSSLRSEDTAVYYCARFDNYDRGYVRDYWGQGTLVTVS
VL: DIVMTQSPDSLAVSLGERATINCRASESVDNDRISFLNWYQQKPGQPPKLLIYAATKQGTGVPDRFSGSGSGTDFTLTISSLQAEDVAVYYCQQSKPFPWSFGGGTKVEIKR
- A450 ELISA [8]: 0.2 A450

B8: 6G light chain mutant variant 5B (Q94G) (antibody, V domains shown)
VH: QVQLVQSGAEVKKPGASVKVSCKASGYTFTTYAIHWVRQAPGQGLEWMGFTSPYSGVSNYNQKFKGRVTMTRDTSTSTVYMELSSLRSEDTAVYYCARFDNYDRGYVRDYWGQGTLVTVS
VL: DIVMTQSPDSLAVSLGERATINCRASESVDNDRISFLNWYQQKPGQPPKLLIYAATKQGTGVPDRFSGSGSGTDFTLTISSLQAEDVAVYYCQGSKEFPWSFGGGTKVEIKR
- A450 ELISA [8]: 0.14 A450
